Article doi:10.1101/2020.10.21.349050
Like-named read-outs stand apart in the source and are kept apart here.

How the values were obtained:
Experiment in all cases: EMSA
GST-Swi6 [1] = target: T1, GST-Swi6 (Schizosaccharomyces pombe, UniProt P40381 1-328)
T1 sequence: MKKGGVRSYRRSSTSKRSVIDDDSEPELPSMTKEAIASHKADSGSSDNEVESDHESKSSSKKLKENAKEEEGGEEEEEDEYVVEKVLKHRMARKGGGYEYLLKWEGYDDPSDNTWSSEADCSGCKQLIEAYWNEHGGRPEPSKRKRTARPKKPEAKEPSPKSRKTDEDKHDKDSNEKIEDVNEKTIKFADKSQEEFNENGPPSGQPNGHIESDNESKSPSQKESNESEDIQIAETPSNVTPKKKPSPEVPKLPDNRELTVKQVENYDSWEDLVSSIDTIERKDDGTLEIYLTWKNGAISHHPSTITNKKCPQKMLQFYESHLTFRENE

GST-Swi6 3K->3A = target: T2, GST-Swi6 3K->3A (Schizosaccharomyces pombe, UniProt P40381 1-328, K242A;K243A;K244A)
T2 sequence: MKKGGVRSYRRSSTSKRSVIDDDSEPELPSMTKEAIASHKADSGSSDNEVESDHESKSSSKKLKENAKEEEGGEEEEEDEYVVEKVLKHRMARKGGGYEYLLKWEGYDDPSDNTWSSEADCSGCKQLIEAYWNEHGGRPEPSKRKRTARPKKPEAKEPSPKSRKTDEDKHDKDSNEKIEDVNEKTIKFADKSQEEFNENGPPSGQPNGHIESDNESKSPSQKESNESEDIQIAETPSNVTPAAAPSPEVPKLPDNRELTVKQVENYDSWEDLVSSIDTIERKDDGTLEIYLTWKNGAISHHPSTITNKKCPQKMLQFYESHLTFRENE

GST-Swi6 [2] = target: T1, GST-Swi6; remark: listed apart in the source
GST-Swi6 [3] = target: T1, GST-Swi6; remark: listed apart in the source
GST-Swi6 [4] = target: T1, GST-Swi6; remark: listed apart in the source
GST-Swi6 [5] = target: T1, GST-Swi6; remark: listed apart in the source

B1: D-For RNA-DNA hybrid (DNA:RNA)
RNA: UGGAUUAAGGAGAAGCGGUA
DNA: TACCGCTTCTCCTTAATCCA
Kd (GST-Swi6 [1]): 90 nM
binding result (GST-Swi6 3K->3A): no binding
Kd (GST-Swi6 [2]): 80 nM
Kd (GST-Swi6 [3]): 730 nM

B2: E-For RNA (ssRNA)
RNA: ACAAGUGAUAAGAGUAGGUGU
Kd (GST-Swi6 [4]): 2150 ± 100 nM

B3: D-Rev RNA (ssRNA)
RNA: UACCGCUUCUCCUUAAUCCA
binding result (GST-Swi6 [5]): no binding

B4: D-For RNA (ssRNA)
RNA: UGGAUUAAGGAGAAGCGGUA
Kd (GST-Swi6 [2]): 2450 nM
Kd (GST-Swi6 [3]): 1790 nM
